What was measured:
[1] = target: T1, human PD-1 on transfected CHO-K1 cells (human, UniProt Q15116 25-288); assay: cell-based blocking assay, flow cytometry: binding of FITC labeled human PD-L1-Fc to human PD-1 transfected CHO-K1 cells is blocked
T1 construct: also called Human PD-1 transfected CHO-K1 cells

[2] = target: T2, recombinant human VEGF 165 (human, UniProt P15692-4 27-191); assay: bio-layer interferometry, rhVEGF165
T2 construct: Bought protein

[3] = target: T3, His tagged human PD-1 (human, UniProt Q15116 25-170); assay: bio-layer interferometry, PD-1-His (R&D)
T3 construct: also called His tagged human PD-I; PD-1 protein

[4] = target: T3, His tagged human PD-1; assay: bio-layer interferometry, PD-1-His (R&D); column head prints KD (nM) but the cell carries E-09, and Kd/Ka of the same row gives this number in M

T2 sequence (P15692 other isoform, or with tags, fused parts or gaps limits assumed): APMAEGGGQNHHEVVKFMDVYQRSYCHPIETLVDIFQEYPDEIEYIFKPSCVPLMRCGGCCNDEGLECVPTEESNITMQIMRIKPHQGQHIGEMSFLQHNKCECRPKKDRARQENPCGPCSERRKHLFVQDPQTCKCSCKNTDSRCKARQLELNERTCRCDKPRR
T3 sequence (Q15116 25-170 limits assumed): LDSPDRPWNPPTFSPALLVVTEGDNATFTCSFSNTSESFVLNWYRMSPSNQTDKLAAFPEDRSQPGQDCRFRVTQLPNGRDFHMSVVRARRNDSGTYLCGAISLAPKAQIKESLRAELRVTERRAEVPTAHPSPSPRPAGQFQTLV
T1 sequence (Q15116 25-288 limits assumed): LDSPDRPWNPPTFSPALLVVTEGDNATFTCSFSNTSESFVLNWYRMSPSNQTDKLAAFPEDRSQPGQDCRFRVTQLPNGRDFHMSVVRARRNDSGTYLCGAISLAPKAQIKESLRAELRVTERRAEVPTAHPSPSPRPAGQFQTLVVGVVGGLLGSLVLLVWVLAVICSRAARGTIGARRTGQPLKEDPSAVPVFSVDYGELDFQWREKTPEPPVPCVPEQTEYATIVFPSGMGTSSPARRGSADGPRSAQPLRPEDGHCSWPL

B1: 2P17 (antibody, V domains shown)
VH: QVQLVQSGAEVKKPGASVKVSCKASGYTFTSYYIHWVRQAPGQGLEWMGWIFPGSGNSKYNENFKGRVTLTADTSTSTVYMELSSLRSEDTAVYYCASETYDYGDYWGQGTLVTVSS
VL: DIQMTQSPSFLSASVGDRVTITCKASQNVGTNVAWYQQKPGKAPKALIYSASYRYSGVPSRFSGSGSGTEFTLTISSLQPEDFATYYCQQYYSYPYTFGQGTKLEIK
notes: also called PD-06; parental antibody 2P17
[1]
  IC50: 0.37 nM

B2: TS-ZPT-3S(2P16) (other)
chain 1: QVQLVQSGAEVKKPGASVKVSCKASGYTFTTYYIYWVRQAPGQGLEWMGGINPGNGGTNFNEKFKIRVTMTRDTSISTAYMELSSLRSEDTAVYYCARRYHGYDGGLDYWGQGTLVTVSSASTKGPSVFPLAPCSRSTSESTAALGCLVKDYFPEPVTVSWNSGALTSGVHTFPAVLQSSGLYSLSSVVTVPSSSLGTKTYTCNVDHKPSNTKVDKRVESKYGPPCPPCPAPEFLGGPSVFLFPPKPKDTLMISRTPEVTCVVVDVSQEDPEVQFNWYVDGVEVHNAKTKPREEQFNSTYRVVSVLTVLHQDWLNGKEYKCKVSNKGLPSSIEKTISKAKGQPREPQVYTLPPSQEEMGGQEECEWDPWTCEHMGGTKNQVSLTCLVKGFYPSDIAVEWESNGQPENNYKTTPPVLDSDGSFFLYSRLTVDKSRWQEGNVFSCSVMHEALHNHYTQKSLSLSLGKGGGGSGGGGSGGGGSSDTGRPFVEMYSEIPEIIHMTEGRELVIPCRVTSPNITVTLKKFPLDTLIPDGKRIIWDSRKGFIISNATYKEIGLLTCEATVNGHLYKTNYLTHRQTNTIIDVVLSPSHGIELSVGEKLVLNCTARTELNVGIDFNWEYPSSKHQHKKLVNRDLKTQSGSEMKKFLSTLTIDGVTRSDQGLYTCAASSGLMTKKNSTFVRVHEK
chain 2: DIVLTQSPASLAVSPGQRATITCRASKSVSTSGFSYIHWYQQKPGQPPKLLIYLASNLESGVPARFSGSGSGTDFTLTINPVEANDTANYYCQHTWELPNTFGGGTKVEIKRTVAAPSVFIFPPSDEQLKSGTASVVCLLNNFYPREAKVQWKVDNALQSGNSQESVTEQDSKDSTYSLSSTLTLSKADYEKHKVYACEVTHQGLSSPVTKSFNRGEC
[2]
  Kd: 0.0063 nM
  koff: 4.31e-06 s⁻¹
  kon: 683000 M⁻¹ s⁻¹
[3]
  koff: 0.00159 s⁻¹
  kon: 335000 M⁻¹ s⁻¹
[1]
  IC50: 0.43 nM
[4]
  Kd: 4.76 nM

— patent US20200002439A1 (GENSUN BIOPHARMA, published 2020)
